Results taken from US20220026429A1, “COMPOSITIONS AND METHODS OF ALTERING A NUCLEIC ACID WITH RIBONUCLEASE” (The Research Foundation for the State University of New York, priority 2020, published 2022).

B1: RNase A: endonucleases from Enzyme Class EC 3.1.27.5 (protein, UniProt P61823 27-150, looked up)
Ribonuclease pancreatic: KETAAAKFERQHMDSSTSAASSSNYCNQMMKSRNLTKDRCKPVNTFVHESLADVQAVCSQKNVACKNGQTNCYQSYSTMSITDCRETGSSKYPNCAYKTTQANKHIIVACEGNPYVPVHFDASV
B2: RNase T: ribonuclease enzyme purchased from New England Biolabs (protein, UniProt P30014 1-215, looked up)
Ribonuclease T: MSDNAQLTGLCDRFRGFYPVVIDVETAGFNAKTDALLEIAAITLKMDEQGWLMPDTTLHFHVEPFVGANLQPEALAFNGIDPNDPDRGAVSEYEALHEIFKVVRKGIKASGCNRAIMVAHNANFDHSFMMAAAERASLKRNPFHPFATFDTAALAGLALGQTVLSKACQTAGMDFDSTQAHSALYDTERTAVLFCEIVNRWKRLGGWPLSAAEEV

Legend:
RNase H = biological target: T1, RNase H (Escherichia coli, UniProt P0A7Y4); test: DNA nanoswitch RNase H inhibition assay (gel readout); format: biochemical; conditions: nanoswitch incubated with different concentrations of kanamycin, then RNase H (0.5 U) added; FIG. 4F; read-out: IC50 value, inhibition of the RNA cleavage activity of RNase H
T1 construct: purchased New England Biolabs (NEB)
T1 sequence (P0A7Y4 whole entry): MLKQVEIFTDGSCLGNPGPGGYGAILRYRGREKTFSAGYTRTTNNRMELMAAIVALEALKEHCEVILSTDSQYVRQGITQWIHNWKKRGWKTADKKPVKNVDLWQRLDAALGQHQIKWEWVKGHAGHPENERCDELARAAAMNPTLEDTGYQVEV
Description: (§1) Locked nanoswitches, such as DNA-nanoswitch-nucleic acid constructs were first mixed with RNase H buffer (1× final) and placed at 37° C. 1 μl of RNase H (different units/μl) was added to 10 μl of locked nanoswitches such as DNA-nanoswitch-nucleic acid constructs and incubated at 37° C. For sensitivity experiments, samples were incubated for 1 hour at 37° C. For time series experiments, RNase H enzyme was added at different time points (from 16 mins to 0 min). After incubation, samples were mixed with 1 μl GelRed (1×final) and 2 μl loading dye (15% Ficoll, 0.1% bromophenol blue), and run on 0.8% agarose gels. A similar protocol was used for the other enzymes.
(§2) Nanoswitches were run in 0.8% agarose gels, cast from molecular biology grade agarose (Fisher BioReagents) dissolved in 0.5×Tris-borate EDTA (TBE). Gels were typically run at 75 V (constant voltage) at room temperature. Samples were pre-stained by mixing 1× GelRed stain with the samples before loading. Gels were imaged with a Bio-Rad Gel Doc XR+gel imager and analyzed using ImageJ.
Next, the potential of assays of the present disclosure was tested for screening RNase H inhibitors. […] To further make a rapid readout, a start-to-finish assay was performed within 15 mins, by incubating the nanoswitches with RNase H for 5 mins followed by agarose gel electrophoresis for 10 mins (FIG. 4G). […]

[1] = test system: locked nanoswitches (RNA lock strand); test: DNA nanoswitch RNase activity assay, panel of RNases; format: biochemical; conditions: agarose gel readout, FIG. 4E
Description: as §1, §2
As a step toward testing ribonuclease presence in biological samples, a known concentration of RNase H was spiked into fetal bovine serum (FBS) and cell lysates extracted from human (HeLa) and murine (C2C12) cell lines. RNase detection was preserved in 10% FBS and cell lysates with the unlocking of the DNA nanoswitch in both biofluids (FIGS. 4B-4C).

| Molecule | IC50 (RNase H) | response of the locked nanoswitches (unlooping) to RNases [1] |
| --- | --- | --- |
| NC[C@H]1O[C@H](O[C@H]2[C@H](O)[C@@H](O[C@H]3O[C@H](CO)[C@@H](O)[C@H](N)[C@H]3O)[C@H](N)C[C@@H]2N)[C@H](O)[C@@H](O)[C@@H]1O [kanamycin] | 30.6 mM | – |
| B1 | – | high levels of unlooping |
| B2 | – | no activity |
